Test results as given in the Immune Epitope Database (IEDB).
pIC50, pKd: −log10 of the molar value. Blank lines part the entries; values can stand above or below the sequence they belong to.

Legend:
[1] = biological target: HLA-A*02:01; assay: IEDB peptide-MHC binding, cellular MHC/competitive/fluorescence; ≥ and ≤ were set here for values at or beyond the usual limits of such assays; details: source organism: Homo sapiens
[2] = biological target: HLA-C*04:01; assay: IEDB peptide-MHC binding, purified MHC/direct/fluorescence; filed as Kd, often an IC50 or EC50 that approximates it; ≥ and ≤ were set here for values at or beyond the usual limits of such assays
[3] = biological target: HLA-C*06:02; assay: as above
[4] = biological target: HLA-B*45:06; assay: IEDB peptide-MHC binding, purified MHC/competitive/fluorescence; filed as Kd, often an IC50 or EC50 that approximates it; ≥ and ≤ were set here for values at or beyond the usual limits of such assays; details: source organism: human gammaherpesvirus 4
[5] = biological target: HLA-B*27:20; assay: as above; details: source organism: human gammaherpesvirus 4
[6] = biological target: HLA-B*15:42; assay: as above; details: source organism: human gammaherpesvirus 4
[7] = biological target: HLA-C*04:01; assay: as above; details: source organism: human gammaherpesvirus 4
[8] = biological target: HLA-B*15:17; assay: IEDB peptide-MHC binding, purified MHC/direct/fluorescence; filed as Kd, often an IC50 or EC50 that approximates it; ≥ and ≤ were set here for values at or beyond the usual limits of such assays; details: source organism: Camelpox virus M-96
[9] = biological target: HLA-B*38:01; assay: as above
[10] = biological target: HLA-B*40:01; assay: as above
[11] = biological target: HLA-B*58:01; assay: as above
[12] = biological target: HLA-A*01:01; assay: as above
[13] = biological target: HLA-A*69:01; assay: as above
[14] = biological target: HLA-B*18:01; assay: as above
[15] = biological target: HLA-B*15:01; assay: as above
[16] = biological target: HLA-B*08:02; assay: as above; details: source organism: Variola virus
[17] = biological target: HLA-B*07:02; assay: as above; details: source organism: Camelpox virus M-96
[18] = biological target: HLA-A*02:01; assay: as above; details: source organism: Camelpox virus M-96
[19] = biological target: HLA-B*57:01; assay: as above
[20] = biological target: HLA-B*39:01; assay: as above; details: source organism: Camelpox virus M-96
[21] = biological target: HLA-A*26:01; assay: as above; details: source organism: Variola virus
[22] = biological target: HLA-A*68:02; assay: as above; details: source organism: Camelpox virus M-96
[23] = biological target: HLA-B*08:01; assay: as above; details: source organism: Variola virus
[24] = biological target: HLA-B*48:01; assay: as above
[25] = biological target: HLA-B*46:01; assay: as above
[26] = biological target: HLA-B*27:05; assay: as above
[27] = biological target: HLA-A*02:03; assay: IEDB peptide-MHC binding, purified MHC/competitive/fluorescence; filed as Kd, often an IC50 or EC50 that approximates it; ≥ and ≤ were set here for values at or beyond the usual limits of such assays
[28] = biological target: HLA-B*35:01; assay: as above; details: source organism: Vaccinia virus WR
[29] = biological target: HLA-A*30:01; assay: as above; details: source organism: Vaccinia virus WR
[30] = biological target: HLA-A*23:01; assay: IEDB peptide-MHC binding, purified MHC/direct/fluorescence; filed as Kd, often an IC50 or EC50 that approximates it; ≥ and ≤ were set here for values at or beyond the usual limits of such assays; details: source organism: Vibrio cholerae V52
[31] = biological target: HLA-B*15:09; assay: as above; details: source organism: Vibrio cholerae V52
[32] = biological target: HLA-A*02:12; assay: as above; details: source organism: Vibrio cholerae V52
[33] = biological target: HLA-A*02:19; assay: as above; details: source organism: Vibrio cholerae V52
[34] = biological target: HLA-B*51:01; assay: as above; details: source organism: Vibrio cholerae V52
[35] = biological target: HLA-A*11:01; assay: as above; details: source organism: Vibrio cholerae
[36] = biological target: HLA-A*30:01; assay: as above; details: source organism: Vibrio cholerae V52
[37] = biological target: HLA-A*29:02; assay: as above; details: source organism: Vibrio cholerae V52
[38] = biological target: HLA-B*44:02; assay: as above; details: source organism: Vibrio cholerae V52
[39] = biological target: HLA-A*24:03; assay: as above; details: source organism: Vibrio cholerae V52
[40] = biological target: HLA-A*03:01; assay: IEDB peptide-MHC binding, purified MHC/competitive/fluorescence; filed as Kd, often an IC50 or EC50 that approximates it; ≥ and ≤ were set here for values at or beyond the usual limits of such assays; details: source organism: Vibrio cholerae MO10
[41] = biological target: HLA-B*15:17; assay: as above; details: source organism: Vibrio cholerae MO10
[42] = biological target: HLA-A*02:01; assay: as above; details: source organism: Vibrio cholerae MO10
[43] = biological target: HLA-B*39:01; assay: as above; details: source organism: Vibrio cholerae MO10
[44] = biological target: HLA-A*31:01; assay: as above; details: source organism: Vibrio cholerae MO10
[45] = biological target: HLA-B*08:01; assay: as above; details: source organism: Vibrio cholerae MO10
[46] = biological target: HLA-A*24:02; assay: IEDB peptide-MHC binding, purified MHC/direct/fluorescence; filed as Kd, often an IC50 or EC50 that approximates it; ≥ and ≤ were set here for values at or beyond the usual limits of such assays; details: source organism: Giardia lamblia ATCC 50803
[47] = biological target: HLA-C*14:02; assay: as above; details: source organism: Giardia lamblia ATCC 50803
[48] = biological target: HLA-C*15:02; assay: as above; details: source organism: Giardia lamblia ATCC 50803
[49] = biological target: HLA-A*24:02; assay: IEDB peptide-MHC binding, purified MHC/competitive/fluorescence; filed as Kd, often an IC50 or EC50 that approximates it; ≥ and ≤ were set here for values at or beyond the usual limits of such assays
[50] = source organism: Camelpox virus M-96
[51] = source organism: Vibrio cholerae V52
[52] = source organism: Vibrio cholerae
[53] = source organism: Giardia lamblia ATCC 50803
[54] = source organism: Bacillus anthracis str. A0488

pIC50 [1]: ≤ 3.70
Sequence: SPSVDKARAEL

Sequence: KYFIPVIEI
pKd ([2]; source organism: Homo sapiens): ≤ 4.70

Sequence: RRYRRIYDL
pKd ([3]; source organism: human gammaherpesvirus 4): 7.77
pKd [4]: ≤ 5.30
pKd [5]: ≥ 10.00
pKd [6]: ≤ 5.30
pKd [7]: ≤ 5.30

Sequence: TESDAIRTL
pKd [8]: ≤ 4.70
pKd ([9]; source organism: Variola virus): 5.42
pKd [10, 50]: 7.65
pKd [11, 50]: ≤ 4.70
pKd [12, 50]: ≤ 4.70
pKd [13, 50]: ≤ 4.70
pKd [14, 50]: 7.77
pKd [15, 50]: ≤ 4.70
pKd [16]: ≤ 4.70
pKd [17]: ≤ 4.70
pKd [18]: ≤ 4.70
pKd [19, 50]: ≤ 4.70
pKd [20]: 6.93
pKd [21]: ≤ 4.70
pKd [22]: ≤ 4.70
pKd [23]: ≤ 4.70
pKd [24, 50]: ≤ 4.70
pKd [25, 50]: ≤ 4.70
pKd [26, 50]: ≤ 4.70
pKd ([27]; source organism: Vaccinia virus WR): ≤ 4.70
pKd [28]: 5.43
pKd [29]: ≤ 4.70

Sequence: EVNAHIHTM
pKd [30]: ≤ 4.70
pKd [31]: ≤ 4.70
pKd [9, 51]: ≤ 4.70
pKd [10, 52]: ≤ 4.70
pKd [32]: ≤ 4.70
pKd [11, 52]: ≤ 4.70
pKd [33]: ≤ 4.70
pKd [12, 52]: ≤ 4.70
pKd [13, 52]: ≥ 9.00
pKd [34]: ≤ 4.70
pKd [14, 51]: 5.74
pKd [35]: ≤ 4.70
pKd [36]: ≤ 4.70
pKd [15, 51]: ≤ 4.70
pKd [37]: ≤ 4.70
pKd [38]: ≤ 4.70
pKd [19, 52]: ≤ 4.70
pKd [24, 52]: ≤ 4.70
pKd [39]: ≤ 4.70
pKd [25, 52]: ≤ 4.70
pKd [26, 52]: ≤ 4.70
pKd [40]: ≤ 4.70
pKd ([27]; source organism: Vibrio cholerae MO10): ≤ 4.70
pKd [41]: ≤ 4.70
pKd [42]: ≤ 4.70
pKd [43]: 5.87
pKd [44]: ≤ 4.70
pKd [45]: ≤ 4.70

Sequence: YWLNTPFLV
pKd [46]: ≥ 9.00
pKd [2, 53]: ≤ 4.70

Sequence: RYYLSFFHI
pKd [3, 53]: ≤ 4.70
pKd [47]: 7.52
pKd [48]: ≤ 4.70
pKd [49, 53]: 8.85

Sequence: IYPFHVQKI
pKd [3, 54]: 6.09
pKd [49, 54]: ≥ 10.00
